Key:
[1] = target: T1, Muc2 (human, glycosylated, secreted in colonic mucus) (human, UniProt Q02817 21-5289, limits assumed, native glycosylation, with sulfated oligosaccharides); experiment: staining of PFA-fixed; FIG. 31 is titled 'Identification of Muc2 in neutrophile granules'
T1 construct: Native secreted mucin in mucus extracts or tissue, not a purified recombinant protein; also called glycoprotein Muc2
Description: FIG. 31. Identification of Muc2 in neutrophile granules. Human neutrophil (PMN) granule staining using Cy5-MUB40-1, Cy5-MUB40-2, Cy5-MUB40-3, Cy5-MUB40-4 peptides. Schematic description of the Cy5-conjugated peptides. PMN were purified from healthy donor blood samples and fixed in the presence of 4% PFA. Fluorescent staining of human colonic mucus was performed by the addition of 1 μg/mL of the Cy5-conjugated peptides (Green) with Dapi (1:100) (Blue) and Phalloidin-RRX (1:1000) (Red). Image acquisition was performed using a fluorescent confocal microscope (see Methods).

[2] = target: T1, Muc2 (human, glycosylated, secreted in …); experiment: fluorescent staining of fixed human colonic mucus; MUB40 probes said to display the same properties as the MUB70 probe
Description: FIG. 22. Schematic description of the Cy5-MUB40-1, Cy5-MUB40-2, Cy5-MUB40-3, Cy5-MUB40-4 peptides (SEQ ID NOS 62 to 65). Fluorescent staining of human colonic mucus was performed by the addition of 1 μg/mL of the corresponding Cy5-conjugated peptides with Phalloidin-RRX (1:100) on formol fixed, paraffin embedded samples. Image acquisition was performed using a fluorescent confocal microscope (see Methods).
FIG. 23 Comparative staining analysis of human colonic goblet cells using Cy5-MUB70 and Cy5-MUB40-1. Fluorescent staining of human colonic mucus was performed by the addition of 1 μg/mL of the corresponding Cy5-conjugated peptides with Phalloidin-RRX (1:100) on formol fixed, paraffin embedded samples. Image acquisition was performed using a fluorescent confocal microscope (see Methods).

[3] = target: Muc5b (human, in colonic mucus extract) (human, UniProt Q9HC84 26-5762, limits assumed); experiment: pulldown on avidin-agarose beads, dot blot immunodetection
Description: (§1) Pulldown assays were performed in the presence of 600 μg biot-MUB₇₀ bound to 500 μL Avidin-agarose beads (Thermo Scientific) in a Phosphate Buffer pH=8 buffer for 1 h at 4° C. After 3 washes, 10 mg soluble human colonic mucus extract were incubated with the loaded beads for 2 h at 4° C. After 3 washes, beads were boiled in the presence of 1× Laemli buffer. As a negative control, Avidin-agarose beads were loaded with 15 μg biotin (Sigma-Aldrich) and processed using the same procedure. Experiments were performed on two independent occasions.
(§2) In order to identify a MUB₇₀ ligand present in the soluble extracts of human colonic mucus, biot-MUB₇₀, a biotinylated form of MUB₇₀, was synthesized (see Methods) in order to perform pulldown assays. Biot-MUB₇₀ was incubated with avidin beads and further with human colonic mucus extracts (produced in vitro from differentiated HT-29 MTX cells, see Methods). Biotin only was used as a negative control. […] A dot blot assay was then performed, focusing on secreted mucins, which are the major components of colonic mucus. Muc2 was immunodectected in the eluted fraction, and not in the negative control, and Muc5ac, Muc5b or Muc6, all detected in the input were absent from the eluted fraction (FIG. 4A). […] Processing a chemical deglycosylation step on the soluble mucus extract (see Methods) prior to pulldown assay abolished the interaction between Muc2 and biot-MUB₇₀ (FIG. 4A). […] [12].

[4] = target: Muc6 (human, in colonic mucus extract) (human, UniProt Q6W4X9 23-2439, limits assumed); experiment: as above
Description: as §1, §2

[5] = target: Muc5ac (human, in colonic mucus extract) (human, UniProt P98088 28-5654, limits assumed); experiment: as above
Description: as §1, §2

[6] = target: T2, Muc2 of mouse colonic mucus (mouse, UniProt Q80Z19 21-4576, limits assumed); experiment: fluorescent staining of PFA-fixed mouse colon, confocal microscopy
T2 construct: The experiment stained colonic mucus; also called murine Muc2
Description: FIG. 11. Mucus staining using Cy5-MUB₇₀ on fixed tissues. (A) Guinea pig colon, (B) rabbit ileum and (C) mouse colon were fixed in PFA 4%. Immunofluorescent staining was performed using Cy5-MUB₇₀ (1 μg/mL) (blue). Actin is stained in red (Phall.-RRX), Muc2 is stained in green (α-Muc2). Observations were performed using a confocal microscope. Bar is 50 μm.

Muc6 (human, in colonic mucus extract), sequence (Q6W4X9 23-2439 limits assumed): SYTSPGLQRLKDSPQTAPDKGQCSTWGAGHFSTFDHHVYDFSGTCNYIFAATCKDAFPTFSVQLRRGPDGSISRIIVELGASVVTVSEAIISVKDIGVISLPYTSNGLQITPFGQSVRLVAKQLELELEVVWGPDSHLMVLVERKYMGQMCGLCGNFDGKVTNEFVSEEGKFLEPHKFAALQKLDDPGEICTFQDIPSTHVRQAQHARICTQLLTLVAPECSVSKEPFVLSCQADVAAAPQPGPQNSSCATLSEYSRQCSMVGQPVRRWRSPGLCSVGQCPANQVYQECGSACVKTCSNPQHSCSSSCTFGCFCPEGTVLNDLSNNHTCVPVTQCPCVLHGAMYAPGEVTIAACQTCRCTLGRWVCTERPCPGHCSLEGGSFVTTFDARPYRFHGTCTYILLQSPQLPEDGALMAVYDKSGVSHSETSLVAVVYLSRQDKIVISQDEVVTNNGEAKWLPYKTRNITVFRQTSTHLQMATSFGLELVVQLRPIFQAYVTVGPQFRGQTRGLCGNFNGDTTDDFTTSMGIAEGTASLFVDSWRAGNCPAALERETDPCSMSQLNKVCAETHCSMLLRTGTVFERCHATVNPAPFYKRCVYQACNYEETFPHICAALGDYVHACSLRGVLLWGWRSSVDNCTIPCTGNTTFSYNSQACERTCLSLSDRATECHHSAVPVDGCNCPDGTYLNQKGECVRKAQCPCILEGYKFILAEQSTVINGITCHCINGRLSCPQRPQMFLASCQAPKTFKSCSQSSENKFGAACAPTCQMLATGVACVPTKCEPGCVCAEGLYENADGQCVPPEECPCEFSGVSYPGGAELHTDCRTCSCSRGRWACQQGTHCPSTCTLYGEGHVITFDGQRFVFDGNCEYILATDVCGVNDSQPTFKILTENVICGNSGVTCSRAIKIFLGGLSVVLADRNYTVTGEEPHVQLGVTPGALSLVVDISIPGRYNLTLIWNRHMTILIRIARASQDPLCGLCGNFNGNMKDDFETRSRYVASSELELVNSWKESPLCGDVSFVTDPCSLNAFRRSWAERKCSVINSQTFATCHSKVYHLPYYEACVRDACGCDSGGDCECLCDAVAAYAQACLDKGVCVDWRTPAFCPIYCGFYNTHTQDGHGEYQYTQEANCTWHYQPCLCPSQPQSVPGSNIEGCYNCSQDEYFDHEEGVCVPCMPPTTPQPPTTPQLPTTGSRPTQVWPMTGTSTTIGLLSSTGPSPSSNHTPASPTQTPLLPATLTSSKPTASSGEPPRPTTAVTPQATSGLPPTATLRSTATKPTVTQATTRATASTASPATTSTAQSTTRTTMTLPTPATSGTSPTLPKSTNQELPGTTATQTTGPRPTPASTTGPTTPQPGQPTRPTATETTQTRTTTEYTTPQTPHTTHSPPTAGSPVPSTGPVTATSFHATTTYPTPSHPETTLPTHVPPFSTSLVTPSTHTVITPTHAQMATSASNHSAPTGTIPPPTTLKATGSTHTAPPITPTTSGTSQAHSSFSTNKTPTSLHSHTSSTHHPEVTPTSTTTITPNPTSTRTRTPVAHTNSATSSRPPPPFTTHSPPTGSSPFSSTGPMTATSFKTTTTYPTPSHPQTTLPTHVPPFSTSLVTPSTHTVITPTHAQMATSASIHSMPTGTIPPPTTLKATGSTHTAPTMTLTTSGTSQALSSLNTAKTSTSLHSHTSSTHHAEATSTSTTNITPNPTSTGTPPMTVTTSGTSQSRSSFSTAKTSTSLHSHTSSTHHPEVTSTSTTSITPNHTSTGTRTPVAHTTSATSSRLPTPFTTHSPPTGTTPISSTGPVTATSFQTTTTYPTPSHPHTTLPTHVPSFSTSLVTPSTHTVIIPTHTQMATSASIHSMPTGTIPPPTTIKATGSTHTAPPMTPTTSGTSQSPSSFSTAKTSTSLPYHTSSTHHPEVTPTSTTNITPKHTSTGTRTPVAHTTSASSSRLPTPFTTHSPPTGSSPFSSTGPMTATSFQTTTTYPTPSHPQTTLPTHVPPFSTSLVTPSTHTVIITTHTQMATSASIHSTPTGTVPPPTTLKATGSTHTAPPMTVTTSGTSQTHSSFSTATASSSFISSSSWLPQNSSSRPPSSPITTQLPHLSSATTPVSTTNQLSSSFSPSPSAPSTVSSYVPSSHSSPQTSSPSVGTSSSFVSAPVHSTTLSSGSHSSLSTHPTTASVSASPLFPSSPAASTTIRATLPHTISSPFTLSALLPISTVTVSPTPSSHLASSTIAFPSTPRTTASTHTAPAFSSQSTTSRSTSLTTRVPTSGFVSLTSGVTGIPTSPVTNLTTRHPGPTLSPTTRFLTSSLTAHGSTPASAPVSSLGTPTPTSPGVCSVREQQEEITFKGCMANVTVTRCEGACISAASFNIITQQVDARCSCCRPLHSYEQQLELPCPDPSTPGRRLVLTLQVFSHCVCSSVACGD

B1: Cy5-MUB40-3 (peptide)
peptide: Ac-C(Cy5 maleimide)DQMLRQDDLDGYTDETIPYSTAEGIKKFEGDGYELFKDNF-NH2
notes: also called MUB40-Cy5#3; Cy5-labeled MUB40-3
B1: binds [1].

B2: Cy5-MUB40-4 (peptide)
peptide: Ac-C(Cy5 maleimide)VHVQYIDGETDQMLRQDDLDGYTDETIPYSTAEGIKKFEG-NH2
notes: also called MUB40-Cy5#4; Cy5-labeled MUB40-4
B2: binds [1].

B3: Cy5-MUB40-1 (peptide)
peptide: Ac-C(Cy5 maleimide)TAEGIKKFEGDGYELFKDNFPAGEKFDNDDTNDQFYTVIF-NH2
notes: also called MUB40-Cy5#1; Cy5-labeled MUB40-1
B3: binds [2].

B4: biot-MUB70 (biotinylated MUB70) (peptide)
peptide: CVHVQYIDGETDQMLRQDDLDGYTDETIPYSTAEGIKKFEGDGYELFKDNFPAGEKFDNDDTNDQFYTVIF
modifications: maleimide-PEG2-biotin on the added N-terminal Cys
notes: Chemically synthesized; also called biotinylated derivative of MUB70
B4: no binding [3]; no binding [4]; no binding [5].

B5: Cy5-MUB70 (peptide)
peptide: CVHVQYIDGETDQMLRQDDLDGYTDETIPYSTAEGIKKFEGDGYELFKDNFPAGEKFDNDDTNDQFYTVIF
modifications: Cy5 mono maleimide on the added N-terminal Cys
notes: Chemically synthesized; also called MUB70-Cy5; Cy5-labeled MUB
B5: no binding (tested: 1 µg/mL) [6].

B6: Cy5-MUB40-2 (peptide)
peptide: Ac-C(Cy5 maleimide)GYTDETIPYSTAEGIKKFEGDGYELFKDNFPAGEKFDNDD-NH2
notes: also called MUB40-Cy5#2; Cy5-labeled MUB40-2
B6: binds [1].
